Bridges are numbered along the chain shown (N, C = ends). [ ]: non-standard residue; d: D form. R8 = C=CCCCCCC[C@@](C)(N)C(=O)O; S5 = C=CCCC[C@](C)(N)C(=O)O
T1: C-terminally 6x Histidine-tagged Beta-Catenin (aa 134-668, 59 KD) (UniProt P35222 134-668)
T1 construct: range 134-668; Armadillo repeat region
T1 sequence: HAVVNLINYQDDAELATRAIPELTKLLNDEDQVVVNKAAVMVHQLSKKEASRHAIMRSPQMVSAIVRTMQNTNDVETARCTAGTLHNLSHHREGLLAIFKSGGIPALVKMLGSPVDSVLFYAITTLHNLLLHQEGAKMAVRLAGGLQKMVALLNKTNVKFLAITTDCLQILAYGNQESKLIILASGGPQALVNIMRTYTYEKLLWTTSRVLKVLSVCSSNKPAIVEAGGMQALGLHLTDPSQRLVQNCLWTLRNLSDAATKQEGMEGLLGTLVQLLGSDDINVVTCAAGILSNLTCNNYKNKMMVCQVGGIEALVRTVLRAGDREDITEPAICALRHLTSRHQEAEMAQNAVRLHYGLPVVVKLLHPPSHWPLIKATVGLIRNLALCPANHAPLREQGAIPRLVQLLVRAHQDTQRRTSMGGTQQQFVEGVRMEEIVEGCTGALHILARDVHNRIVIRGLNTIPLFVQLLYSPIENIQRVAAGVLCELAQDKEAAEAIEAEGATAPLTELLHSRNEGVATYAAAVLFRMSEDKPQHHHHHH


Target: T1, C-terminally 6x Histidine-tagged …
Assay: competitive fluorescence polarization, FAM-labelled linear probe as competitor, His-tagged beta-catenin 134-668
Method in brief: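 FP competition in 25 mM Tris-HCl pH 7.5, 200 mM NaCl, 5 mM CHAPS, 2 mM DTT at room temperature. Competitor peptides at 40–0.7 μM 2× working range, constant DMSO. Probe (benchmark peptide with N-terminal FAM via β-Ala spacer) from 25 nM 10× stock. Read after 3 h in the dark, ex 485/em 528 nm.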

Binder	IC50
Ac-LGANDELISW[S5]DEG[S5]QQEKSSENSSA[S5]RDL[S5]NVKSSLV-NH2 (staple 11-15, 27-31; SMILES CC[C@H](C)[C@H](NC(=O)[C@H](CC(C)C)NC(=O)[C@H](CCC(=O)O)NC(=O)[C@H](CC(=O)O)NC(=O)[C@H](CC(N)=O)NC(=O)[C@H](C)NC(=O)CNC(=O)[C@H](CC(C)C)NC(C)=O)C(=O)N[C@@H](CO)C(=O)N[C@@H](Cc1c[nH]c2ccccc12)C(=O)N[C@@]1(C)CCCC=CCCC[C@@](C)(C(=O)N[C@@H](CCC(N)=O)C(=O)N[C@@H](CCC(N)=O)C(=O)N[C@@H](CCC(=O)O)C(=O)N[C@@H](CCCCN)C(=O)N[C@@H](CO)C(=O)N[C@@H](CO)C(=O)N[C@@H](CCC(=O)O)C(=O)N[C@@H](CC(N)=O)C(=O)N[C@@H](CO)C(=O)N[C@@H](CO)C(=O)N[C@@H](C)C(=O)N[C@@]2(C)CCCC=CCCC[C@@](C)(C(=O)N[C@@H](CC(N)=O)C(=O)N[C@H](C(=O)N[C@@H](CCCCN)C(=O)N[C@@H](CO)C(=O)N[C@@H](CO)C(=O)N[C@@H](CC(C)C)C(=O)N[C@H](C(N)=O)C(C)C)C(C)C)NC(=O)[C@H](CC(C)C)NC(=O)[C@H](CC(=O)O)NC(=O)[C@H](CCCNC(=N)N)NC2=O)NC(=O)CNC(=O)[C@H](CCC(=O)O)NC(=O)[C@H](CC(=O)O)NC1=O) [SP61]	1 µM
LGANDELISFANEGAQEEKSSNNSSAARDLADVKSSLV (not fully specified; N-terminal acetyl; C-terminal amide; $ = (S)-alpha-(2'-pentenyl)alanine at positions 11 and 15 (first crosslink) and 27 and 31 (second crosslink), each pair joined by an all-carbon crosslinker with one double bond) [SP62]	0.07 µM
Ac-LGANDELISF[S5]NEG[S5]QAEKSSNNSSA[S5]RNL[S5]DVKSSLV-NH2 (staple 11-15, 27-31; SMILES CC[C@H](C)[C@H](NC(=O)[C@H](CC(C)C)NC(=O)[C@H](CCC(=O)O)NC(=O)[C@H](CC(=O)O)NC(=O)[C@H](CC(N)=O)NC(=O)[C@H](C)NC(=O)CNC(=O)[C@H](CC(C)C)NC(C)=O)C(=O)N[C@@H](CO)C(=O)N[C@@H](Cc1ccccc1)C(=O)N[C@@]1(C)CCCC=CCCC[C@@](C)(C(=O)N[C@@H](CCC(N)=O)C(=O)N[C@@H](C)C(=O)N[C@@H](CCC(=O)O)C(=O)N[C@@H](CCCCN)C(=O)N[C@@H](CO)C(=O)N[C@@H](CO)C(=O)N[C@@H](CC(N)=O)C(=O)N[C@@H](CC(N)=O)C(=O)N[C@@H](CO)C(=O)N[C@@H](CO)C(=O)N[C@@H](C)C(=O)N[C@@]2(C)CCCC=CCCC[C@@](C)(C(=O)N[C@@H](CC(=O)O)C(=O)N[C@H](C(=O)N[C@@H](CCCCN)C(=O)N[C@@H](CO)C(=O)N[C@@H](CO)C(=O)N[C@@H](CC(C)C)C(=O)N[C@H](C(N)=O)C(C)C)C(C)C)NC(=O)[C@H](CC(C)C)NC(=O)[C@H](CC(N)=O)NC(=O)[C@H](CCCNC(=N)N)NC2=O)NC(=O)CNC(=O)[C@H](CCC(=O)O)NC(=O)[C@H](CC(N)=O)NC1=O) [SP63]	1.19 µM
LGANDELISFANEGAQEEKSSNNSSAARNLADVKSSLV (not fully specified; N-terminal acetyl; C-terminal amide; $ = (S)-alpha-(2'-pentenyl)alanine at positions 11 and 15 (first crosslink) and 27 and 31 (second crosslink), each pair joined by an all-carbon crosslinker with one double bond) [SP64]	0.541 µM
Ac-LGANDELISFKDEGEQEEKSS-NH2 (Linear, not crosslinked) [SP15]	6.08 µM
Ac-LGANDELISF[S5]DEG[S5]QEEKSSN-NH2 (staple 11-15; SMILES CC[C@H](C)[C@H](NC(=O)[C@H](CC(C)C)NC(=O)[C@H](CCC(=O)O)NC(=O)[C@H](CC(=O)O)NC(=O)[C@H](CC(N)=O)NC(=O)[C@H](C)NC(=O)CNC(=O)[C@H](CC(C)C)NC(C)=O)C(=O)N[C@@H](CO)C(=O)N[C@@H](Cc1ccccc1)C(=O)N[C@@]1(C)CCCC=CCCC[C@@](C)(C(=O)N[C@@H](CCC(N)=O)C(=O)N[C@@H](CCC(=O)O)C(=O)N[C@@H](CCC(=O)O)C(=O)N[C@@H](CCCCN)C(=O)N[C@@H](CO)C(=O)N[C@@H](CO)C(=O)N[C@@H](CC(N)=O)C(N)=O)NC(=O)CNC(=O)[C@H](CCC(=O)O)NC(=O)[C@H](CC(=O)O)NC1=O) [SP16]	≥ 100 µM
Ac-LGANDELISFK[S5]EGE[S5]EEKSSN-NH2 (staple 12-16; SMILES CC[C@H](C)[C@H](NC(=O)[C@H](CC(C)C)NC(=O)[C@H](CCC(=O)O)NC(=O)[C@H](CC(=O)O)NC(=O)[C@H](CC(N)=O)NC(=O)[C@H](C)NC(=O)CNC(=O)[C@H](CC(C)C)NC(C)=O)C(=O)N[C@@H](CO)C(=O)N[C@@H](Cc1ccccc1)C(=O)N[C@@H](CCCCN)C(=O)N[C@@]1(C)CCCC=CCCC[C@@](C)(C(=O)N[C@@H](CCC(=O)O)C(=O)N[C@@H](CCC(=O)O)C(=O)N[C@@H](CCCCN)C(=O)N[C@@H](CO)C(=O)N[C@@H](CO)C(=O)N[C@@H](CC(N)=O)C(N)=O)NC(=O)[C@H](CCC(=O)O)NC(=O)CNC(=O)[C@H](CCC(=O)O)NC1=O) [SP17]	52.9 µM
Ac-LGANDELISFKDEG[S5]QEE[S5]SSN-NH2 (staple 15-19; SMILES CC[C@H](C)[C@H](NC(=O)[C@H](CC(C)C)NC(=O)[C@H](CCC(=O)O)NC(=O)[C@H](CC(=O)O)NC(=O)[C@H](CC(N)=O)NC(=O)[C@H](C)NC(=O)CNC(=O)[C@H](CC(C)C)NC(C)=O)C(=O)N[C@@H](CO)C(=O)N[C@@H](Cc1ccccc1)C(=O)N[C@@H](CCCCN)C(=O)N[C@@H](CC(=O)O)C(=O)N[C@@H](CCC(=O)O)C(=O)NCC(=O)N[C@@]1(C)CCCC=CCCC[C@@](C)(C(=O)N[C@@H](CO)C(=O)N[C@@H](CO)C(=O)N[C@@H](CC(N)=O)C(N)=O)NC(=O)[C@H](CCC(=O)O)NC(=O)[C@H](CCC(=O)O)NC(=O)[C@H](CCC(N)=O)NC1=O) [SP18]	60.1 µM
Ac-LGANDELISFKDEGE[S5]EEK[S5]SN-NH2 (staple 16-20; SMILES CC[C@H](C)[C@H](NC(=O)[C@H](CC(C)C)NC(=O)[C@H](CCC(=O)O)NC(=O)[C@H](CC(=O)O)NC(=O)[C@H](CC(N)=O)NC(=O)[C@H](C)NC(=O)CNC(=O)[C@H](CC(C)C)NC(C)=O)C(=O)N[C@@H](CO)C(=O)N[C@@H](Cc1ccccc1)C(=O)N[C@@H](CCCCN)C(=O)N[C@@H](CC(=O)O)C(=O)N[C@@H](CCC(=O)O)C(=O)NCC(=O)N[C@@H](CCC(=O)O)C(=O)N[C@@]1(C)CCCC=CCCC[C@@](C)(C(=O)N[C@@H](CO)C(=O)N[C@@H](CC(N)=O)C(N)=O)NC(=O)[C@H](CCCCN)NC(=O)[C@H](CCC(=O)O)NC(=O)[C@H](CCC(=O)O)NC1=O) [SP19]	≥ 100 µM
Ac-LGANDELISF[R8]DEGEQE[S5]KSSN-NH2 (staple 11-18; SMILES CC[C@H](C)[C@H](NC(=O)[C@H](CC(C)C)NC(=O)[C@H](CCC(=O)O)NC(=O)[C@H](CC(=O)O)NC(=O)[C@H](CC(N)=O)NC(=O)[C@H](C)NC(=O)CNC(=O)[C@H](CC(C)C)NC(C)=O)C(=O)N[C@@H](CO)C(=O)N[C@@H](Cc1ccccc1)C(=O)N[C@]1(C)CCCCCCC=CCCC[C@@](C)(C(=O)N[C@@H](CCCCN)C(=O)N[C@@H](CO)C(=O)N[C@@H](CO)C(=O)N[C@@H](CC(N)=O)C(N)=O)NC(=O)[C@H](CCC(=O)O)NC(=O)[C@H](CCC(N)=O)NC(=O)[C@H](CCC(=O)O)NC(=O)CNC(=O)[C@H](CCC(=O)O)NC(=O)[C@H](CC(=O)O)NC1=O) [SP20]	≥ 100 µM
Ac-LGANDELISFK[R8]EGEQEE[S5]SSN-NH2 (staple 12-19; SMILES CC[C@H](C)[C@H](NC(=O)[C@H](CC(C)C)NC(=O)[C@H](CCC(=O)O)NC(=O)[C@H](CC(=O)O)NC(=O)[C@H](CC(N)=O)NC(=O)[C@H](C)NC(=O)CNC(=O)[C@H](CC(C)C)NC(C)=O)C(=O)N[C@@H](CO)C(=O)N[C@@H](Cc1ccccc1)C(=O)N[C@@H](CCCCN)C(=O)N[C@]1(C)CCCCCCC=CCCC[C@@](C)(C(=O)N[C@@H](CO)C(=O)N[C@@H](CO)C(=O)N[C@@H](CC(N)=O)C(N)=O)NC(=O)[C@H](CCC(=O)O)NC(=O)[C@H](CCC(=O)O)NC(=O)[C@H](CCC(N)=O)NC(=O)[C@H](CCC(=O)O)NC(=O)CNC(=O)[C@H](CCC(=O)O)NC1=O) [SP21]	23.9 µM
Ac-LGANDELISF[S5]DQG[S5]QEEKSSN-NH2 (staple 11-15; SMILES CC[C@H](C)[C@H](NC(=O)[C@H](CC(C)C)NC(=O)[C@H](CCC(=O)O)NC(=O)[C@H](CC(=O)O)NC(=O)[C@H](CC(N)=O)NC(=O)[C@H](C)NC(=O)CNC(=O)[C@H](CC(C)C)NC(C)=O)C(=O)N[C@@H](CO)C(=O)N[C@@H](Cc1ccccc1)C(=O)N[C@@]1(C)CCCC=CCCC[C@@](C)(C(=O)N[C@@H](CCC(N)=O)C(=O)N[C@@H](CCC(=O)O)C(=O)N[C@@H](CCC(=O)O)C(=O)N[C@@H](CCCCN)C(=O)N[C@@H](CO)C(=O)N[C@@H](CO)C(=O)N[C@@H](CC(N)=O)C(N)=O)NC(=O)CNC(=O)[C@H](CCC(N)=O)NC(=O)[C@H](CC(=O)O)NC1=O) [SP39]	3.08 µM
